Laboratory results published in the RNAGym collection of RNA variant scans (doi:10.7554/elife.90254).

B1: LINE1-mini (parent)
chain: GGCAGAGCUCAACACAGCGUGGCAAAGUGGCUGUGGCUAGACUGCC

Variants of: B1
Assay: self-cleavage, relative activity (ratio to wild type); higher = more cleavage; in vitro, sequencing; the parent is a self-cleaving ribozyme

Going from C23A A25G to C23A A25C, the self-cleavage rises from 0.49 to 0.61.

First: C23A A25U
Second: G22U U43C
The self-cleavage of the first is higher: 0.78 for the first, 0.18 for the second.

Compared with G22U U43A, G22U U43G is lower in self-cleavage: 0.06 for the first, 0.03 for the second.

Going from G22C U32C to G22C U32A, the self-cleavage falls from 0.11 to 0.04.

First: G22C U32G
Second: G22U G29A
The self-cleavage of the first is lower: 0.2 for the first, 1.67 for the second.

First: G22U G29U
Second: G22U G29C
The self-cleavage of the first is lower: 0.72 for the first, 0.84 for the second.

First: G22U
Second: G22U C31A
The self-cleavage of the first is higher: 1.38 for the first, 0.2 for the second.

First: G22U C31G
Second: G22U C31U
The self-cleavage of the first is lower: 0.22 for the first, 0.4 for the second.

Compared with G22C U28G, G22C U28A is higher in self-cleavage: 0.43 for the first, 0.44 for the second.

Going from G22C U28C to G22C C42U, the self-cleavage falls from 0.5 to 0.21.

Compared with G22C C42G, G22C C42A is higher in self-cleavage: 0.03 for the first, 0.13 for the second.

Going from G22U C23G to G22U C23U, the self-cleavage falls from 2.27 to 1.8.

Compared with G22U C23A, G22U C45G is lower in self-cleavage: 1.25 for the first, 0.42 for the second.

First: G22U C45A
Second: G22U C45U
The self-cleavage of the first is lower: 0.88 for the first, 1.25 for the second.

Going from G22U A39U to G22U A39C, the self-cleavage falls from 1 to 0.14.

Going from G22U A39G to G22U G44U, the self-cleavage rises from 0.08 to 0.27.

First: G22U G44A
Second: G22U G44C
The self-cleavage of the first is higher: 0.85 for the first, 0.34 for the second.

First: G22U U32G
Second: G22U U32A
The self-cleavage of the first is higher: 0.15 for the first, 0.13 for the second.

First: G22U U32C
Second: G22U C37U
The self-cleavage of the first is higher: 0.6 for the first, 0.05 for the second.

Compared with G22U C37A, G22U C37G is lower in self-cleavage: 0.06 for the first, 0.03 for the second.

First: C23A A24G
Second: C23A A24C
The self-cleavage of the first is lower: 0.53 for the first, 0.85 for the second.

Compared with C23A A24U, C23A C31G is lower in self-cleavage: 1 for the first, 0.08 for the second.

Compared with C23A C31U, C23A C31A is lower in self-cleavage: 0.45 for the first, 0.26 for the second.

Compared with G22U U28A, G22U U28G is higher in self-cleavage: 0.58 for the first, 0.83 for the second.

Going from G22U U28C to G22U G27C, the self-cleavage rises from 0.42 to 0.57.

Compared with G22U G27A, G22U G27U is higher in self-cleavage: 1.04 for the first, 1.46 for the second.

G22C U43G and G22C U43C are the same in self-cleavage: 0.06 for the first, 0.06 for the second.

Compared with G22C U43A, C23A C46G is higher in self-cleavage: 0.12 for the first, 1.53 for the second.

First: C23A C46A
Second: C23A C46U
The self-cleavage of the first is lower: 0.98 for the first, 1.1 for the second.

Compared with C23A C45G, C23A C45U is higher in self-cleavage: 0.42 for the first, 1.97 for the second.

Compared with C23A C45A, G22U G36C is lower in self-cleavage: 1.12 for the first, 0.1 for the second.

Compared with G22U G36A, G22U G36U is lower in self-cleavage: 0.15 for the first, 0.06 for the second.

Going from G22C G29U to G22C G29C, the self-cleavage falls from 0.38 to 0.27.

First: G22C G29A
Second: G22C C37A
The self-cleavage of the first is higher: 1.19 for the first, 0.09 for the second.

Going from G22C C37G to G22C C37U, the self-cleavage falls from 0.05 to 0.02.

First: G22C G27A
Second: G22C G27C
The self-cleavage of the first is higher: 0.75 for the first, 0.44 for the second.

First: G22C G27U
Second: G22U C46A
The self-cleavage of the first is lower: 0.53 for the first, 1.15 for the second.

Going from G22U C46G to G22U C46U, the self-cleavage rises from 0.91 to 1.22.

Compared with G22U G33U, G22U G33C is lower in self-cleavage: 0.28 for the first, 0.07 for the second.

Compared with G22U G33A, G22C C46U is higher in self-cleavage: 0.63 for the first, 0.65 for the second.

Compared with G22C C46G, G22C C46A is higher in self-cleavage: 0.13 for the first, 0.61 for the second.

First: C23A A41U
Second: C23A A41C
The self-cleavage of the first is higher: 0.84 for the first, 0.05 for the second.

First: C23A A41G
Second: G22C G40U
The self-cleavage of the first is higher: 0.43 for the first, 0.14 for the second.

Compared with G22C G40A, G22C G40C is lower in self-cleavage: 0.09 for the first, 0.08 for the second.

Compared with G22U A24C, G22U A24G is higher in self-cleavage: 0.92 for the first, 1.25 for the second.

Compared with G22U A24U, C23A A39G is lower in self-cleavage: 1.4 for the first, 0.08 for the second.

First: C23A A39C
Second: C23A A39U
The self-cleavage of the first is lower: 0.27 for the first, 0.73 for the second.

Going from G22C A41U to G22U G35A, the self-cleavage falls from 0.72 to 0.15.

Going from G22U G35U to G22U G35C, the self-cleavage falls from 0.39 to 0.22.

First: C23A A26U
Second: C23A A26C
The self-cleavage of the first is lower: 0.88 for the first, 0.98 for the second.

Going from C23A A26G to G22C U38A, the self-cleavage falls from 0.94 to 0.31.

Going from G22C U38C to G22C U38G, the self-cleavage falls from 0.68 to 0.05.

Going from G22C C45A to G22C C45U, the self-cleavage rises from 0.39 to 1.21.

G22C C45G and G22C U34C are the same in self-cleavage: 0.17 for the first, 0.17 for the second.

Compared with G22C U34A, G22C U34G is higher in self-cleavage: 0.09 for the first, 0.17 for the second.

First: G22U G30U
Second: G22U G30C
The self-cleavage of the first is lower: 1.03 for the first, 2.28 for the second.

Going from G22U G30A to G22C G33C, the self-cleavage falls from 1.49 to 0.06.

Compared with G22C G33U, G22C G33A is higher in self-cleavage: 0.06 for the first, 0.07 for the second.

Compared with C23A, G22C G44A is lower in self-cleavage: 1.01 for the first, 0.13 for the second.

Compared with G22C G44C, G22C G44U is lower in self-cleavage: 0.41 for the first, 0.4 for the second.

Going from C23A C42U to C23A C42A, the self-cleavage falls from 0.52 to 0.3.

First: C23A C42G
Second: G22U U34C
The self-cleavage of the first is lower: 0.06 for the first, 0.44 for the second.

First: G22U U34A
Second: G22U U34G
The self-cleavage of the first is lower: 0.19 for the first, 0.26 for the second.

First: G22C C23A
Second: G22C C23U
The self-cleavage of the first is higher: 0.92 for the first, 0.64 for the second.

First: G22C C23G
Second: G22C G30U
The self-cleavage of the first is lower: 0.28 for the first, 0.53 for the second.

Going from G22C G30C to G22C G30A, the self-cleavage falls from 1.94 to 0.76.

Compared with C23A G29A, C23A G29C is lower in self-cleavage: 0.91 for the first, 0.39 for the second.

Compared with G22U U38A, G22U U38C is higher in self-cleavage: 0.46 for the first, 2.12 for the second.

First: G22U U38G
Second: G22U A41U
The self-cleavage of the first is lower: 0.04 for the first, 0.72 for the second.

Going from G22U A41C to G22U A41G, the self-cleavage rises from 0.04 to 0.37.

Compared with G22C G35A, G22C G35C is lower in self-cleavage: 0.14 for the first, 0.08 for the second.

First: G22C G35U
Second: G22U G40A
The self-cleavage of the first is lower: 0.15 for the first, 0.2 for the second.

Going from G22U G40C to G22U G40U, the self-cleavage falls from 0.18 to 0.15.

First: G22U A26G
Second: G22U A26C
The self-cleavage of the first is higher: 1.68 for the first, 1.53 for the second.

Going from G22U A26U to G22C G36U, the self-cleavage falls from 1.59 to 0.1.

Compared with G22C G36C, G22C G36A is lower in self-cleavage: 0.25 for the first, 0.05 for the second.

First: C23A C37A
Second: C23A C37G
The self-cleavage of the first is higher: 0.06 for the first, 0.02 for the second.

Going from C23A C37U to G22U A25U, the self-cleavage rises from 0.03 to 1.49.

Compared with G22U A25C, G22U A25G is higher in self-cleavage: 0.65 for the first, 1.01 for the second.

First: G22C C31U
Second: G22C C31A
The self-cleavage of the first is higher: 0.26 for the first, 0.14 for the second.

Compared with G22C C31G, G22U C42A is higher in self-cleavage: 0.08 for the first, 0.28 for the second.

Going from G22U C42U to G22U C42G, the self-cleavage falls from 0.39 to 0.04.

Compared with C23A G27C, C23A G27A is higher in self-cleavage: 0.81 for the first, 0.92 for the second.

In the case of C23A G27U, the self-cleavage is reported as 0.72.
